These results are taken from patent publication EP0832971B1.

Assay [1] deals with HIV-1 strain HTLV-IIIB (virus grown in H9 cells; envelope glycoprotein gp120 on the virus) (HIV-1 strain HTLV-IIIB) (UniProt P04578). The assay can be described thus: cell-based or functional assay.
Assay [2] concerns the target gp120, the major envelope glycoprotein of HIV-I (radioiodinated 125I-gp120; unlabeled purified gp120) (HIV-1). Nature of the assay: saturation binding of 125I-gp120 in solution, immunoprecipitation with OKT4, Scatchard analysis.

Where “and” joins values, the source holds several entries; their conditions need not be identical. Equal entries are not always repeated.

As for “CD4T (product of pRKCD4T: CD4 fused after residue 368 of mature CD4 to 9 residues coded by pBR322) (from UniProt P01730 26-393) (receptor)”, in assay [1], the Indirect immunofluorescence (% positive cells), 1:4 inhibitor supernatant (% positive cells) is 18 and 16.1; the Indirect immunofluorescence (% positive cells), undil. inhibitor supernatant (% positive cells) was 0.4 and 0.8; the Reverse transcriptase (cpm/ml x 10^5), 1:4 inhibitor supernatant was 594000 cpm/ml and 372000 cpm/ml; the Reverse transcriptase (cpm/ml x 10^5), undil. inhibitor supernatant was 11000 cpm/ml and 15000 cpm/ml. For the same substance, the Kd (in general, a measure of binding affinity in units of concentration) in assay [2] is 0.83 nM.

Turning to “gDCD4T (first 27 residues of mature HSV type I gD glycoprotein fused to mature CD4T; product of pRKGDCD4T) (from UniProt Q69091 1-27; P01730 1-368) (receptor)”, in assay [1], the Indirect immunofluorescence (% positive cells), 1:4 inhibitor supernatant (% positive cells) was 26.8 and 36.1; the Reverse transcriptase (cpm/ml x 10^5), 1:4 inhibitor supernatant is 992000 cpm/ml and 1.13e+06 cpm/ml; the Reverse transcriptase (cpm/ml x 10^5), undil. inhibitor supernatant is 14000 cpm/ml and 23000 cpm/ml. The Kd in assay [2] is 0.72 nM.
